Data taken from the Immune Epitope Database (IEDB).

Columns and labels:
HLA-B*15:01 [1] = experiment: IEDB peptide-MHC binding, purified MHC/competitive/fluorescence; ≥ and ≤ were set here for values at or beyond the usual limits of such assays
HLA-A*02:01 [2] = experiment: as above
HLA-B*40:01 = experiment: IEDB peptide-MHC binding, purified MHC/direct/fluorescence; filed as Kd, often an IC50 or EC50 that approximates it; ≥ and ≤ were set here for values at or beyond the usual limits of such assays; conditions: source organism: Yersinia pestis
HLA-B*08:01 = experiment: as above
HLA-A*02:12 = experiment: as above; conditions: source organism: Yersinia enterocolitica subsp. enterocolitica 8081
HLA-B*15:01 [3] = experiment: as above
HLA-A*02:01 [4] = experiment: as above
HLA-B*58:01 [5] = experiment: as above
HLA-A*01:01 = experiment: as above
HLA-B*44:02 = experiment: as above
HLA-A*03:01 [6] = experiment: as above
HLA-A*11:01 [7] = experiment: as above
HLA-B*57:01 [8] = experiment: as above
HLA-A*26:01 = experiment: as above; conditions: source organism: Yersinia pestis
HLA-B*27:05 = experiment: as above
HLA-B*51:01 = experiment: as above
HLA-A*02:19 = experiment: as above; conditions: source organism: Yersinia enterocolitica subsp. enterocolitica 8081
HLA-B*07:02 = experiment: as above
HLA-A*31:01 = experiment: as above
HLA-A*69:01 = experiment: as above; conditions: source organism: Yersinia pestis
HLA-A*29:02 = experiment: as above
HLA-B*48:01 = experiment: as above; conditions: source organism: Mammarenavirus lassaense
HLA-B*46:01 = experiment: as above; conditions: source organism: Mammarenavirus lassaense
HLA-B*58:01 [9] = experiment: IEDB peptide-MHC binding, purified MHC/competitive/radioactivity; filed as Kd, often an IC50 or EC50 that approximates it; ≥ and ≤ were set here for values at or beyond the usual limits of such assays
HLA-B*57:01 [10] = experiment: as above
HLA-A*03:01 [11] = experiment: IEDB peptide-MHC binding, purified MHC/competitive/fluorescence; ≥ and ≤ were set here for values at or beyond the usual limits of such assays
HLA-A*11:01 [12] = experiment: as above
HLA-B*08:02 = experiment: IEDB peptide-MHC binding, purified MHC/direct/fluorescence; filed as Kd, often an IC50 or EC50 that approximates it; ≥ and ≤ were set here for values at or beyond the usual limits of such assays; conditions: source organism: Vibrio parahaemolyticus AQ3810
HLA-A*24:02 = experiment: IEDB peptide-MHC binding, purified MHC/competitive/fluorescence; ≥ and ≤ were set here for values at or beyond the usual limits of such assays
[13] = source organism: Zaire ebolavirus
[14] = source organism: Yersinia pestis Nepal516
[15] = source organism: Yersinia enterocolitica subsp. enterocolitica 8081
[16] = source organism: Bacillus anthracis
[17] = source organism: Mammarenavirus lassaense
[18] = source organism: Dengue virus 2 Jamaica/1409/1983
[19] = source organism: Sudan ebolavirus
[20] = source organism: Dengue virus 1 Brazil/97-11/1997
[21] = source organism: Vaccinia virus Copenhagen

Sequence: AMNEENRFV
- IC50 (HLA-B*15:01 [1]; [13]): ≥ 220 µM
- IC50 (HLA-A*02:01 [2]; [13]): 6.8 µM

Sequence: ETIFTVLAL
- Kd (HLA-B*40:01): 2.41 µM
- Kd (HLA-B*08:01; [14]): ≥ 20 µM
- Kd (HLA-A*02:12): ≥ 20 µM
- Kd (HLA-B*15:01 [3]; [14]): ≥ 20 µM
- Kd (HLA-A*02:01 [4]; [14]): ≥ 20 µM
- Kd (HLA-B*58:01 [5]; [14]): ≥ 20 µM
- Kd (HLA-A*01:01; [14]): ≥ 20 µM
- Kd (HLA-B*44:02; [14]): ≥ 20 µM
- Kd (HLA-A*03:01 [6]; [14]): ≥ 20 µM
- Kd (HLA-A*11:01 [7]; [14]): ≥ 20 µM
- Kd (HLA-B*57:01 [8]; [15]): ≥ 20 µM
- Kd (HLA-A*26:01): 0.00767 µM
- Kd (HLA-B*27:05; [14]): ≥ 20 µM
- Kd (HLA-B*51:01; [15]): ≥ 20 µM
- Kd (HLA-A*02:19): ≥ 20 µM
- Kd (HLA-B*07:02; source organism: Yersinia pestis): 4.5 µM
- Kd (HLA-A*31:01; [14]): ≥ 20 µM
- Kd (HLA-A*69:01): 0.0035 µM
- Kd (HLA-A*29:02; [15]): 0.182 µM

Sequence: RPQHVKKSA
- Kd (HLA-B*15:01 [3]; source organism: Bacillus cereus NVH0597-99): ≥ 20 µM
- Kd (HLA-B*51:01; [16]): ≥ 20 µM
- Kd (HLA-B*07:02; [16]): 0.0085 µM

Sequence: DIKLIDIAL
- Kd (HLA-B*08:01; [17]): 0.894 µM
- Kd (HLA-B*15:01 [3]; [17]): ≥ 20 µM
- Kd (HLA-A*02:01 [4]; [17]): ≥ 20 µM
- Kd (HLA-B*58:01 [5]; [17]): ≥ 20 µM
- Kd (HLA-B*48:01): ≥ 20 µM
- Kd (HLA-A*01:01; [17]): ≥ 20 µM
- Kd (HLA-B*44:02; [17]): ≥ 20 µM
- Kd (HLA-A*03:01 [6]; [17]): ≥ 20 µM
- Kd (HLA-A*11:01 [7]; [17]): ≥ 20 µM
- Kd (HLA-B*57:01 [8]; [17]): ≥ 20 µM
- Kd (HLA-B*27:05; [17]): ≥ 20 µM
- Kd (HLA-B*46:01): ≥ 20 µM
- Kd (HLA-B*07:02; [17]): ≥ 20 µM
- Kd (HLA-A*31:01; [17]): ≥ 20 µM
- Kd (HLA-A*29:02; [17]): ≥ 20 µM

Sequence: FGSLGGVFTS
- Kd (HLA-B*58:01 [9]; [18]): 5.33 µM
- Kd (HLA-B*57:01 [10]; [18]): 2.18 µM

Sequence: LQLFLRATT
- IC50 (HLA-B*15:01 [1]; [19]): ≥ 91.4 µM
- IC50 (HLA-A*02:01 [2]; [19]): ≥ 125 µM

Sequence: KILTAGLSV
- IC50 (HLA-A*02:01 [2]; [13]): 2.56 µM
- IC50 (HLA-A*03:01 [11]; [13]): 36.3 µM
- IC50 (HLA-A*11:01 [12]; [13]): ≥ 159 µM

Sequence: FLRKHNEGL
- Kd (HLA-B*08:02): 1.75 µM

Sequence: YFGPAAEGI
- IC50 (HLA-B*15:01 [1]; [13]): ≥ 197 µM
- IC50 (HLA-A*02:01 [2]; [13]): 60 µM
- IC50 (HLA-A*24:02; [13]): 0.253 µM

Sequence: CTSQILLMRT
- Kd (HLA-B*58:01 [9]; [20]): 17.1 µM
- Kd (HLA-B*57:01 [10]; [20]): 2.41 µM

Sequence: TSSQQKADWI
- Kd (HLA-B*58:01 [9]; [18]): 1.07 µM
- Kd (HLA-B*57:01 [10]; [18]): 2.59 µM

Sequence: KAIDFLLQR
- IC50 (HLA-A*02:01 [2]; [13]): 9.59 µM
- IC50 (HLA-A*24:02; [13]): ≥ 161 µM
- IC50 (HLA-A*03:01 [11]; [13]): 28.8 µM
- IC50 (HLA-A*11:01 [12]; [13]): 0.693 µM

Sequence: PPDGVRGFP
- IC50 (HLA-A*03:01 [11]; [19]): 67.1 µM
- IC50 (HLA-A*11:01 [12]; [19]): 63.2 µM

Sequence: IITPIVFYR
- IC50 (HLA-A*02:01 [2]; [21]): ≥ 132 µM
- IC50 (HLA-A*24:02; [21]): 20.3 µM
- IC50 (HLA-A*03:01 [11]; [21]): 1.49 µM
- IC50 (HLA-A*11:01 [12]; [21]): 0.263 µM
